Measurements reported in US20250340661A1 (JIANGSU HENGRUI PHARMACEUTICALS, published 2025).
Substitutions are numbered along the chain they refer to. In names and notes the source's numbering stands.

B1: humanized anti-CD40 antibody 9E6-L4H2-AAYTE (antibody, human IgG1, kappa, L234A L235A)
heavy: QVQVQESGPGLVKPSDTLSLTCTVSGFSLSSYDMSWIRQPPGKGLEWIGAIGGAGGTYYASWAKSRVTISVDTSLNQVSLKLSSVTAADTAVYYCARGWTRLDLWGQGTLVTVSSASTKGPSVFPLAPSSKSTSGGTAALGCLVKDYFPEPVTVSWNSGALTSGVHTFPAVLQSSGLYSLSSVVTVPSSSLGTQTYICNVNHKPSNTKVDKKVEPKSCDKTHTCPPCPAPEAAGGPSVFLFPPKPKDTLYITREPEVTCVVVDVSHEDPEVKFNWYVDGVEVHNAKTKPREEQYNSTYRVVSVLTVLHQDWLNGKEYKCKVSNKALPAPIEKTISKAKGQPREPQVYTLPPSREEMTKNQVSLTCLVKGFYPSDIAVEWESNGQPENNYKTTPPVLDSDGSFFLYSKLTVDKSRWQQGNVFSCSVMHEALHNHYTQKSLSLSPGK
light: DIQLTQSPSFLSASVGDRVTITCQASEDISSNLAWYQQKPGKPPKLLIFPASNLASGVPSRFSGSGSGTEFTLTISSLQPEDFATYYCQGGYWTSTSNFGQGFGGGTKVEIKRTVAAPSVFIFPPSDEQLKSGTASVVCLLNNFYPREAKVQWKVDNALQSGNSQESVTEQDSKDSTYSLSSTLTLSKADYEKHKVYACEVTHQGLSSPVTKSFNRGEC
notes: light chain unchanged from 9E6-L4H2
B2: 3F6 human-rabbit chimeric anti-CD40 antibody (antibody, human IgG1, V domains shown)
VH: QSVKESEGGLFKPTDTLTLTCTVSGFSLSSYAISWVRQAPGNGLEWIGAIDRYGTTYYATWAKSRSTITRNTNENTVTLKMTSLTAADTATYFCARGPWYYGGDVAWTGSFDPWGPGTLVTVSS
VL: AQVLTQTASPVSAAVGGTVTISCQSSQSVANNDFLSWYQQKPGQPPKLLIYGASTLASGVPSRFRGNGSGTQFTLTITGMQCDDAATYFCTGGYAGPIYIFGGGTEVVVK
B3: 9F10 human-rabbit chimeric anti-CD40 antibody (antibody, human IgG1, V domains shown)
VH: QSVKESEGGLFKPTDTLTLTCTVSGFSLSSYDMSWVRQAPGNGLEWIGAIGGAGGTYYASWAKSRSTITRNTNLNTVTLKMTSLTAADTATYFCTRGWTRLDLWGQGTLVTVSS
VL: DIVLTQTESPVSGPVGGTVTINCQASEDISSNLAWYQQKPGQPPKLLIYAASNLASGVPSRFKGSGSGTEFTLTISDLECADAATYYCQGAYWSSTSYFGNGFGGGTQVVVK
B4: 5A9 human-rabbit chimeric anti-CD40 antibody (antibody, human IgG1, V domains shown)
VH: B3 VH with V23A, G25R, V77L, T95A
VL: B3 VL with E8A, P14A, A25S, A34S, A91G, S95G, T96I, Y98N, Q108E
B5: 9E6 human-rabbit chimeric anti-CD40 antibody (antibody, human IgG1, V domains shown)
VH: B3 VH with K4R, F11V, T82S, T95A
VL: B3 VL with E8P, P14A, N22K, Y49F, A50P, P59S, A91G, S94T, Y98N, Q108E
B6: 10A4 human-rabbit chimeric anti-CD40 antibody (antibody, human IgG1, V domains shown)
VH: QSLEESGGRLVTPGGSLTLTCTVSGIDLSRNAISWVRQSPGNGLEWIGGIGSSGSAYYASWAKSRSTITRDTNLNTVTLKMTSLTAADTATYFCARDGYAGSSWGIYYGMDPWGPGTLVTVSS
VL: AIEMTQSPPSLSASVGETVRIRCLASEDIYRGISWYQQKPGKPPTLLIYGASTLQSGVPPRFSGSGSGTDYTLTIGGVQAEDAATYYCLGGHSYSSAGLTFGAGTKVEIK
B7: humanized anti-CD40 antibody 9E6-L1H2 (antibody, human IgG1, V domains shown)
VH: QVQVQESGPGLVKPSDTLSLTCTVSGFSLSSYDMSWIRQPPGKGLEWIGAIGGAGGTYYASWAKSRVTISVDTSLNQVSLKLSSVTAADTAVYYCARGWTRLDLWGQGTLVTVSS
VL: DIQLTQSPSFLSASVGDRVTITCQASEDISSNLAWYQQKPGKPPKLLIFPASNLASGVPSRFSGSGSGTEFTLTISSLQPEDFATYYCQGGYWTSTSNFGNVFGGGTKVEIK
B8: humanized anti-CD40 antibody 9E6-L3H1 (antibody, human IgG1, V domains shown)
VH: B7 VH with Q1E, V4L
VL: B7 VL with N101T, V102G
B9: humanized anti-CD40 antibody 9E6-L3H2 (antibody, human IgG1, V domains shown)
VH: B7 VH
VL: B7 VL with N101T, V102G
B10: humanized anti-CD40 antibody 9E6-L2H2 (antibody, human IgG1, V domains shown)
VH: B7 VH
VL: B7 VL with N101S, V102G
B11: humanized anti-CD40 antibody 9E6-L4H1 (antibody, human IgG1, V domains shown)
VH: B7 VH with Q1E, V4L
VL: B7 VL with N101Q, V102G
B12: 2F12 human-rabbit chimeric anti-CD40 antibody (antibody, human IgG1, V domains shown)
VH: QSVKESEGGLFKPKDTLTLTCTVSGFSLSSYGVSWVRQAPGNGLEWIGGIGSDGSAYYASWAKSRATITRDTNLKTVTLEMTSLTAADTATYFCARGGITVYAMWGPGTLVTVSS
VL: AFELTQTPASVEAAMGGTVTIKCQASQSISNGLAWYQQKPGQPPKLLIVGASNLASGVSSRFKGSGSGTEFTLSISDLECADGATYYCQSYFSSSSTVFGGGTEVVVK
notes: Rabbit variable regions joined to human IgG1 constant region with N297A (Eu) and human kappa constant region
B13: 8G10 human-rabbit chimeric anti-CD40 antibody (antibody, human IgG1, V domains shown)
VH: QSVKESEGGLFKPTATLTLTCTVSGFSLSSYGVSWVRQAPGSGLEWIGGIASTGTTYYANWAKSRSTITRDTNLKTVTLKMTSLTAADTATYFCARGGITAYAIWGPGTLVTVSS
VL: B12 VL with A9S, M15V, S30T, V49A, S74T, G83A, F92Y, S93D
B14: 5B8 human-rabbit chimeric anti-CD40 antibody (antibody, human IgG1, V domains shown)
VH: B12 VH with K14T, S29N, G49A, D53S, K63R, A66S, K75N, E80K, M104I
VL: AFELTQTPSPVSAAVGGTVTINCQASEDITNGIAWYQQKPGQPPKLLIAGASNLASGVSSRFKGSGSGTEFTLTISDLECDDAATYYCQSYYSSSYTIFGGGTEVVVK
B15: 4D4 human-rabbit chimeric anti-CD40 antibody (antibody, human IgG1, V domains shown)
VH: B12 VH with K14T, M104I
VL: B12 VL with A9S, S10P, E12S, M15V, L46V
B16: 8C12 human-rabbit chimeric anti-CD40 antibody (antibody, human IgG1, V domains shown)
VH: B12 VH with K14T, A86V, M104I
VL: B12 VL with A9S, S10P, E12S, M15V, L46V
B17: 4F6 human-rabbit chimeric anti-CD40 antibody (antibody, human IgG1, V domains shown)
VH: B12 VH with K14A, G25R, S34T, G49A, D53T, A66S, K75N, E80K, V101A, M104I
VL: AFELTQTPSSVEAAVGGTVTIKCQASQSISNGLAWYQQKPGQPPKLLIAGASNLASGVSSRFKGSGSGIEFILTISDLECADAATYYCQSYYNSFTTVFGGGTEVVVK

Columns and labels:
[1] = target: T1, human CD40 on the cell surface (human, UniProt P25942 21-277); test: cell-based or functional assay
T1 sequence (P25942 21-277): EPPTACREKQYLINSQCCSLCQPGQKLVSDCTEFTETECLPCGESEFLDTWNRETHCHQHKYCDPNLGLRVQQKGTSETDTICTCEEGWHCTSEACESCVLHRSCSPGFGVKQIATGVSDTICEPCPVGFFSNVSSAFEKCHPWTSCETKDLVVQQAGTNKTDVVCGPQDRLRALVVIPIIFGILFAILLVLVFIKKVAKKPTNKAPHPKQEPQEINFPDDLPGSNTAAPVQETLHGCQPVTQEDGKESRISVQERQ

[2] = target: T1, human CD40 on the cell surface; test: cell-based or functional assay; remark: listed apart in the source
[3] = target: T1, human CD40 on the cell surface; test: cell-based or functional assay; remark: listed apart in the source
human FcRn antigen = human FcRn antigen (human, UniProt P55899 24-297; P61769 21-119); test: SPR (Biacore), antibody captured on anti-human Fab chip, human FcRn as analyte, steady state model
Chain of human FcRn antigen (P55899 24-297 limits assumed, chain 1 of 2): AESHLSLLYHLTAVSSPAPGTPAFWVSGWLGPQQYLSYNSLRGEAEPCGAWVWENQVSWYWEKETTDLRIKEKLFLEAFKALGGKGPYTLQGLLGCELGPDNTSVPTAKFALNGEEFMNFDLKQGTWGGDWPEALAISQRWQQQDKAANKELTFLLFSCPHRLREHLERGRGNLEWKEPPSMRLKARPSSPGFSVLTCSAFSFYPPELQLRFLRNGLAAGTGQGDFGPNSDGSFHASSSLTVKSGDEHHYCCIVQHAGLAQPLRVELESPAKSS
Chain of human FcRn antigen (P61769 21-119 limits assumed, chain 2 of 2): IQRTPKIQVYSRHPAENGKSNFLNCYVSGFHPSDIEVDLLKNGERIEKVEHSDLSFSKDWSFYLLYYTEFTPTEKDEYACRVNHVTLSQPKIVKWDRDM
Experimental: The test antibody was affinity-captured on an anti-human Fab chip, and a series of concentrations of human FcRn antigen (purchased from AcroBiosystem) were allowed to flow over the chip surface. Reaction signals where the reactions were in a steady state were detected in real time using a Biacore instrument. The buffer used in the experiment was HBS-EP+10× buffer solution (Cat. #BR-1006-69, GE) diluted to 1× (pH 7.4) with D. I. Water. Fitting was performed on the data obtained from the experiment using a steady state binding model to obtain affinity values. The anti-CD40 antibodies carrying the AAYTE mutation have a higher binding affinity for human FcRn than their parent antibodies.

[4] = target: T1, human CD40 on the cell surface; test: cell-based or functional assay; remark: listed apart in the source
[5] = target: T1, human CD40 on the cell surface; test: flow cytometry on Raji cells, AF647 anti-human IgG detection
Experimental: Raji cells are of a tumor cell line that overexpresses human CD40. 2E5 Raji cells were inoculated onto a 96-well plate. 100 μL of a test antibody was added, with the highest final concentration of 100 nM. The antibody was 5-fold diluted to 8 concentrations. The plate was incubated at 4° C. for 1 h. […] The plate was incubated at 4° C. for 30 min. The plate was washed once with wash buffer, and fluorescence intensity was measured using a flow cytometer. The binding EC₅₀ values of the anti-CD40 antibodies for CD40 were calculated. The anti-CD40 antagonistic antibody CFZ533 (i.e., iscalimab, Nova) was used as a positive control, and the heavy and light chain variable region sequences were derived from sequence 5 and sequence 2 of U.S. Pat. No. 8,277,810B, respectively.

[6] = target: T1, human CD40 on the cell surface; test: flow cytometry on Raji cells, Alexa Fluor 488 anti-human IgG (H+L) detection
Experimental: Raji cells were plated at 1.5E5/well, and various concentrations of CD40 antagonistic antibodies were added. The plate was incubated at 4° C. for 1 h. After two washes with FACS buffer (PBS+2% FBS), a secondary antibody (Alexa Flour488 conjugated anti-human IgG (H+L) antibody) was added, and the plate was incubated at 4° C. for 0.5 h.
After two washes with FACS buffer, the fluorescence intensity on the cell surface was measured by flow cytometry (BD FACS Celesta).

Binder | reporter gene cell activity IC50 (HEK-Blue CD40L cells, SEAP) [4] [pM] | EC50 [5] [pM] | EC50 [6] [pM] | also measured
B1 |  |  |  | IC50 (read off the curve), CD40L-induced B cell activation (CD19+CD69+ MFI) [1]: ~200 pM; IC50 (read off the curve), CD40L-induced IL-12/23 p40 secretion by DC cells [2]: ~1000 pM; IC50 (read off the curve), CD40L-induced TNFα secretion by DC cells [3]: ~500 pM; Kd (human FcRn antigen): 39800 pM
B2 | 378 | 1510 |  | 
B3 | 217 |  |  | 
B4 | 317 | 671 |  | 
B5 | 221 | 608 | 895 | 
B6 | 217 | 467 |  | 
B7 |  |  | 1050 | 
B8 |  |  | 1060 | 
B9 |  |  | 1150 | 
B10 |  |  | 1660 | 
B11 |  |  | 928 | 
B12 | 172 | 412 | 479 | 
B13 | 156 |  |  | 
B14 | 203 | 435 |  | 
B15 | 197 |  |  | 
B16 | 173 |  |  | 
B17 | 182 | 258 |  | 
